For series [1] the following is noted: cited from earlier work; for calcium binding: point mutants of bovine α-lactalbumin.
Series [2] can be described thus: Ca2+ titration in the presence of chromophoric chelator quin 2. It counts as binding. Particulars: for Ca2+ binding: quin 2 titration; for Ka, calcium association constant: 2 mM Tris/HCl, chelator quin 2; for Kd: read-out: KD, calcium. From the text:
To study the Ca^2+ binding equilibrium, the proteins listed in table 1 including the D87A BAMLET obtained as described in Example 7, and HAMLET, was titrated with calcium in the presence of a chromophoric chelator, quin 2, for which the absorbance at 263 nm decreases (approx. 85%) upon Ca^2+-binding. The method relies on competition for calcium between the protein and chelator, and can be used to quantitate high affinity sites (ca. 10^7-5·10^9 M^−1 at low salt, and ca. 5 10^5-1·10^8 M^−1 at 0.15 NaCl) when quin 2 is the chelator. The exact concentration of the chelator solution (in the range of 25-30 μM) was calculated from the absorbance at 239.5 nm in the presence of excess calcium (using ε239.5=4.2×10^4 L mol^−1 cm^−1 for quin 2). Lyophilised protein was dissolved in calcium free (<1 μM Ca^2+) chelator solution at a concentration of 25-30 μM. The absorbance at 263 nm (A263) was recorded for the protein/chelator solution using a UV/Vis 920 spectrophotometer (GBC Scientific Equipment Pty Ltd, Victoria, Australia). Calcium solution (3 mM CaCl2 in 2 mM Tris/HCl, pH 7.5, with or without 0.15 M NaCl) was added in portions of 4 μl. A263 was recorded after each calcium addition.
A more concentrated Ca^2+ stock (10 mM) was used at the end of the titrations of the proteins in 0.15 M NaCl. The data was analysed by least squares fitting directly to the measured quantity, absorbance versus total calcium concentration, using the CaLigator software (Andre and Linse, 2002).

Series [3] deals with L1210 leukaemia cells. The series can be described thus: Apoptosis bioassay: L1210 cell viability by Trypan blue exclusion. It counts as cell-based, mouse. As to conditions: for loss of cell viability: L1210, 0.3 mg/ml; for LD50: L1210 cells; for apoptosis induction / biological activity: apoptosis assay. The protocol: The different agonists were dissolved in cell culture medium, without fetal calf serum, and added to the cells (final volume 1 ml per well). Plates were incubated at 37° C. in 5% CO2 atmosphere and 100 μl of fetal calf serum was added to each well after 30 minutes. Cell culture medium served as a control.
Cell viability was determined by Trypan blue exclusion after six hours of incubation. For analysis, 30 μl of the cell suspension was mixed with 30 μl of a 0.2% trypan blue solution and the number of stained cells (dead cells) per 100 cells was determined by interference contrast microscopy (Ortolux II, Leitz Wetzlar, Germany).

In series [4] the test system is L1210 leukaemia cells. Put plainly: DNA fragmentation (oligonucleosome length fragments, agarose gel) in L1210 cells. It counts as cell-based, mouse. Particulars: L1210, six hours. The protocol:
Oligonucleosome length DNA fragments were detected by agarose gel electrophoresis. The cell suspension remaining after trypan blue (970 μl, 2×10^6/ml) was lysed in 5 mM Tris, 20 mM EDTA, 0.5% Triton X-100 pH 8.0 at 4° C. for 1 hour and centrifuged at 13,000×g for 15 minutes. DNA was ethanol precipitated over night in −20° C., treated with proteinase K and RNAse, loaded on 1.8% agarose gels and electrophoresed with constant voltage set at 50V over night. DNA fragments were visualised with ethidium bromide using a 305 nm UV-light source and photographed using Polaroid type 55 positive-negative film.

The nature of series [5]: Spectroscopy (near UV CD, fluorescence, ANS) after addition of excess calcium. It counts as binding. As to conditions: excess calcium (1 mM), no spectral changes. The protocol: The products were then subjected to spectroscopic analysis. The proteins or protein fractions were dialyzed against doubly distilled water and lyophilised. Stock solutions were prepared by dissolving the lyophilised material in 10 mM potassium phosphate buffer at pH 7.5, and concentrations determined as the absorbance at 280 nm (A/l=C (mg/ml) where 1 mg/ml of α-lactalbumin is 70 μM). The spectra were recorded at the appropriate dilution.
Circular Dichroism (CD) spectra were obtained on a JASCO J-720 spectro-polarimeter with a JASCO PTC-343 Peltier type thermostated cell holder. Quartz cuvettes were used with 1 cm path length and spectra were recorded at 25° C. between 240 and 320 nm. […] Six scans were recorded and averaged for each spectrum. Baseline spectra were recorded with pure buffer in the cuvette and substracted from the protein spectra.
Fluorescence spectra were recorded at 25° C. on a Perkin Elmer LS-50B spectrometer using a quartz cuvette with 1 cm excitation path length. Intrinsic (tryptophan) fluorescence emission spectra were recorded between 305 and 530 nm (step 1 nm) with excitation at 295 nm. […] ANS fluorescence emission spectra were recorded at 25° C. on a Perkin Elmer LS-50B spectrometer using a quartz cuvette with 1 cm excitation path length, between 400 and 600 nm (step 1 nm) with excitation at 385 nm. […]

Setting [6] is: 5 mM Tris, 0.1 mM EDTA, pH 7.2, 298 K, CD 270 nm.
The mark [7] stands for this setting: 10 mM Tris/HCl, no salt, pH 7.5, 298 K, ITC.
[8] abbreviates: L1210, six hours, 0.3 mg/ml, reduced from 99%.
[9] abbreviates: L1210, 6 hours' exposure, 0.5 mg/ml, from 98%.

Several values for one entry are separate records, joined by “and”; a condition that tells them apart may be missing. Equal values may be shown once. Entries after “also recorded” stand apart in the source; their conditions may differ. Read-outs that look alike come from different tables or passages of the source.

For the molecule α-lac bovine: bovine α-lactalbumin, the “Ka” value in series [1] (setting [6]) was 2.5e+08 M⁻¹; in series [1] (setting [7]), 4.3e+08 M⁻¹; in series [1] (10 mM Tris/HCl, pH 8, DSC), 2.85e+08 M⁻¹; in series [1] (10 mM ammonium bicarbonate, pH 7.8, EGTA, fluorescence) it was 4.8e+07 M⁻¹; in series [1] (20 mM Tris, pH 7.5, 298 K, fluorescence, Hummel & Dryer method) it was 2.7e+06 M⁻¹; in series [1] (20 mM Tris, pH 7.5, 298 K, microcalorimetry), 2.5e+06 M⁻¹. The “Ka” value in series [1] (50 mM Hepes, pH 8, 293 K, fluorescence) is 4e+08 M⁻¹; in series [1] (50 mM Hepes, pH 8, 310 K, fluorescence) it was 2e+07 M⁻¹; in series [1] (H2O, 100 mM KCl, pH 7, 294 K, EDTA, 43Ca-NMR), 2e+07 M⁻¹; in series [1] (H2O, 100 mM KCl, pH 8, 294-298 K, EGTA 13C-NMR), 2e+07 M⁻¹.

The term cell viability denotes a per cent measure of how many cells are alive, often set against a control. High values mean less harm to the cells, low ones more harm to the cells. BAMLET: in series [2], the “Ca2+ binding” value is given as “shown to bind Ca^2+”. Besides, in series [3], the “loss of cell viability” value was “equally sensitive” and the LD50 came to 0.2 mg/mL. In series [3] (L1210, 6 hours' exposure, reduced from 98%, concentration not given), this molecule gave a cell viability of 4%. The same molecule came in with a cell viability in series [3] (setting [8]) of 12%. Further, in series [4], the “DNA fragmentation” value was “stimulated the formation of the characteristic DNA ladder; also recorded: induces DNA fragmentation”.

B1: HAMLET (protein, UniProt P00709 20-142, looked up)
Alpha-lactalbumin: KQFTKCELSQLLKDIDGYGGIALPELICTMFHTSGYDTQAIVENNESTEYGLFQISNKLWCKSSQVPQSRNICDISCDKFLDDDITDDIMCAKKILDIKGIDYWLAHKALCTEKLEQWLCEKL
modifications: complex with oleic acid
Broadly, the Kd is the equilibrium constant for the complex coming apart. For B1, the “Ka, calcium association constant” value in series [2] (150 mM NaCl (physiological salt)) was 5.3.10^6 M^−1 and 5.3 · 10^6 M^−1; in series [2] (low salt (no added salt)), 5.9e+09 M⁻¹ and 5.9e+08 M⁻¹. Further, the Kd stood at 1.7 nM in series [2] (low salt) and 190 nM in series [2] (physiological salt, 0.15 M NaCl). In addition, the “calcium affinity, times lower than α-lactalbumin” value was found to be 3 times in series [2] (no salt added) and 1.6 times in series [2] (physiological salt concentration). The “Ca2+ binding” value in series [2] is “shown to bind Ca^2+”. In series [3], the “loss of cell viability” value is listed as “died rapidly”. Further, the “apoptosis induction” value in series [3] (L1210, HAMLET 0.3 mg (0.3 mg/ml)) is on record as “induced apoptosis; also recorded: sufficient to kill the cells by apoptosis”. In series [3] (setting [8]), this molecule returned a cell viability of 0%. This molecule registered an LD50 in series [3] of 0.2 mg/mL. Moreover, the “apoptosis induction / biological activity” value in series [3] was “cause apoptosis”. Further, the “DNA fragmentation” value in series [4] is “DNA fragmentation was induced”; in series [4] (listed as C18:1:9cis complex), “DNA fragmentation was observed”.

B2: C18:1:11cis complex: complex of apo-α-lactalbumin with C18:1:11cis fatty acid eluted after 1M NaCl (protein, UniProt P00709 20-142, looked up)
Alpha-lactalbumin: KQFTKCELSQLLKDIDGYGGIALPELICTMFHTSGYDTQAIVENNESTEYGLFQISNKLWCKSSQVPQSRNICDISCDKFLDDDITDDIMCAKKILDIKGIDYWLAHKALCTEKLEQWLCEKL
modifications: complex with C18:1:11cis fatty acid
notes: complex of apo-α-lactalbumin with C18:1:11cis fatty acid eluted after 1M NaCl
Turning to B2, the cell viability in series [3] (setting [8]) came to 0%. Also, the “apoptosis induction / biological activity” value in series [3] is listed as “cause apoptosis”. In series [4], the “DNA fragmentation” value is on record as “DNA fragmentation was observed”.

B3: D87A: bovine α-lactalbumin with aspartic acid at position 87 substituted by alanine (protein, UniProt P00711 20-142, looked up, variant D87A)
Alpha-lactalbumin: EQLTKCEVFRELKDLKGYGGVSLPEWVCTTFHTSGYDTQAIVQNNDSTEYGLFQINNKIWCKDDQNPHSSNICNISCDKFLDDDLTADIMCVKKILDKVGINYWLAHKALCSEKLDQWLCEKL
Turning to B3, the “calcium binding” value in series [5] is reported as “did not bind calcium”; in series [1], “totally abolished calcium binding”. Besides, the “apoptosis induction / biological activity” value in series [3] was “biologically inactive”.

B4: αlac goat: goat α-lactalbumin (protein, UniProt P00712 20-142, looked up)
Alpha-lactalbumin: EQLTKCEVFQKLKDLKDYGGVSLPEWVCTAFHTSGYDTQAIVQNNDSTEYGLFQINNKIWCKDDQNPHSRNICNISCDKFLDDDLTDDIVCAKKILDKVGINYWLAHKALCSEKLDQWLCEKL
In the case of B4, the “Ka” value in series [1] (setting [6]) is 2.8e+08 M⁻¹; in series [1] (setting [7]), 5.7e+08 M⁻¹.

B5: D87N: bovine α-lactalbumin with aspartic acid at position 87 substituted by asparagine (protein, UniProt P00711 20-142, looked up, variant D87N)
Alpha-lactalbumin: EQLTKCEVFRELKDLKGYGGVSLPEWVCTTFHTSGYDTQAIVQNNDSTEYGLFQINNKIWCKDDQNPHSSNICNISCDKFLDDDLTNDIMCVKKILDKVGINYWLAHKALCSEKLDQWLCEKL
In the case of B5, the “apoptosis induction / biological activity” value in series [3] is “biologically inactive”. Also, in series [1], the “calcium binding” value is recorded as “still bound calcium but with lower affinity”.

B6: D87A-BAMLET: protein-lipid complex of D87A mutant bovine α-lactalbumin eluted from C18:1 conditioned column (protein, UniProt P00711 20-142, looked up, variant D87A)
Alpha-lactalbumin: EQLTKCEVFRELKDLKGYGGVSLPEWVCTTFHTSGYDTQAIVQNNDSTEYGLFQINNKIWCKDDQNPHSSNICNISCDKFLDDDLTADIMCVKKILDKVGINYWLAHKALCSEKLDQWLCEKL
modifications: complex with C18:1 fatty acid
notes: protein-lipid complex of D87A mutant bovine α-lactalbumin eluted from C18:1 conditioned column
Turning to B6, in series [2], the “Ca2+ binding” value is reported as “no difference compared to the titration of quin 2 alone; also recorded: does not bind Ca^2+”. For the same molecule, the cell viability in series [3] (setting [9]) stood at 13%. In series [3], this molecule registered an LD50 of 0.4 mg/mL. The “DNA fragmentation” value in series [4] is listed as “induced DNA fragmentation similar to the BAMLET control”.

B7: D87N-BAMLET: protein-lipid complex of D87N mutant bovine α-lactalbumin eluted from C18:1 conditioned column (protein, UniProt P00711 20-142, looked up, variant D87N)
Alpha-lactalbumin: EQLTKCEVFRELKDLKGYGGVSLPEWVCTTFHTSGYDTQAIVQNNDSTEYGLFQINNKIWCKDDQNPHSSNICNISCDKFLDDDLTNDIMCVKKILDKVGINYWLAHKALCSEKLDQWLCEKL
modifications: complex with C18:1 fatty acid
notes: protein-lipid complex of D87N mutant bovine α-lactalbumin eluted from C18:1 conditioned column
In the case of B7, in series [3] (setting [9]), the cell viability is 17%. Also, in series [3], the LD50 stood at 0.4 mg/mL. The “DNA fragmentation” value in series [4] is “induced DNA fragmentation similar to the BAMLET control”.

Values taken from patent publication US20050085416A1, “Biologically active complex” (priority 2002, published 2005).
